Our source for the topoisomerase I assay on pDrive/RPS5: linking number change (ΔLk) with TAFs and TBP mixed in equimolar amounts before the plasmid (TAF complex alone +1.91) values is paper PMC6650902.

The target in this test is TAF complex (TFIIDΔTBP) (S. cerevisiae) (UniProt P46677).

Regarding “TATA-box binding protein (TBP), recombinant (from UniProt P13393 1-240) (natural protein)”, the topoisomerase I assay on pDrive/RPS5: linking number change (ΔLk) with TAFs and TBP mixed in equimolar amounts before the plasmid (TAF complex alone +1.91) is 0.48.
